Values of other authors, collected in publication PMC3037977.
pKd: −log10 of the molar value. Like-named read-outs stand apart in the source and are kept apart here.

Tests used:
[1] = molecular target: importin β (Homo sapiens) (UniProt Q14974)
[2] = molecular target: importin β (Homo sapiens) (UniProt Q14974); remark: listed apart in the source

Sequence of importin β (Homo sapiens) (Q14974 whole entry): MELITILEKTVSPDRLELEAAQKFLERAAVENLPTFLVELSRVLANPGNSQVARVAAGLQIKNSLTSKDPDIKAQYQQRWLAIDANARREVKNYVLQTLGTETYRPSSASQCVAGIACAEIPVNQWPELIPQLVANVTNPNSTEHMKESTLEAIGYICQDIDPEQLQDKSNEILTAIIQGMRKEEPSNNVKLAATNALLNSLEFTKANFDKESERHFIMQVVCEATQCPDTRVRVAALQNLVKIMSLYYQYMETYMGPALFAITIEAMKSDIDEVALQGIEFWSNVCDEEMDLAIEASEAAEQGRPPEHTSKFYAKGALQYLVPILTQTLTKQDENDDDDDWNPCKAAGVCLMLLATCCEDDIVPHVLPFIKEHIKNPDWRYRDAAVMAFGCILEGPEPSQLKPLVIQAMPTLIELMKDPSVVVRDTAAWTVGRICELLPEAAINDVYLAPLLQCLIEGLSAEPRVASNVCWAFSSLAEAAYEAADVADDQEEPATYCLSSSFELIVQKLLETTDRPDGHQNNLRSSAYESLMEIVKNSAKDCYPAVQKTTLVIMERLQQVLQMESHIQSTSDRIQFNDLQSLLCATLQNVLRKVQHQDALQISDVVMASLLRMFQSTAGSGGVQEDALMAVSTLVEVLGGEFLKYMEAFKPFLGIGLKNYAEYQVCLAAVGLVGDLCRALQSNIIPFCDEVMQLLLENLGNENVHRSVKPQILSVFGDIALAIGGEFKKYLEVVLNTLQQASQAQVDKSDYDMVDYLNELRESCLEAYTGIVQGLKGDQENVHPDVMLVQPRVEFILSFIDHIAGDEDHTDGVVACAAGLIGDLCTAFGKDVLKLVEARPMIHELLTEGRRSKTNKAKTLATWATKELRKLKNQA
Sequence of snurportin IBB domain (O95149 8-76): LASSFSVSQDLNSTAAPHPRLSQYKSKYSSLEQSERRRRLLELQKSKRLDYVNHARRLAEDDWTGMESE

Substance | pKd [1] | pKd [2]
snurportin IBB domain (from UniProt O95149) | 8.70 | –
importin α1 IBB domain (from UniProt P52292) | – | 8.70
